Reference: patent publication US20200173986A1

Biological target: endogenous SNAP25 in total cell lysate
Assay: sandwich ELISA with total cell lysate, fusion supernatant

Chain of endogenous SNAP25 in total cell lysate (P60879 whole entry, the tested form may be a part): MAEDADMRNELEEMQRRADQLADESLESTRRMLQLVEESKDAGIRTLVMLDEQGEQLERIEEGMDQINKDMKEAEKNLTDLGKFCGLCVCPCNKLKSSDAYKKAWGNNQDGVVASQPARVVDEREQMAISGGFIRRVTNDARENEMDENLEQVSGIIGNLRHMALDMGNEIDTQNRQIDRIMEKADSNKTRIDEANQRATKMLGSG

B1: B4 IgG (antibody, V domains shown)
VH: EVKLVESGGGLVKPGGSLKLSCAASGFTFSNYGMSWVRQTPEKRLEWVATISSGGSYTYYPDSVKGRFTISRDNAKNTLYLQMSSLRSEDTAMYYCARHEGGGNPYFDYWGQGTTLTVSS
VL: DVLMTQTPLSLPVSLGDQASISCRSSQSLVHSNGNTYLHWYLQKPGQSPKLLIYKVSNRFSGVPDRFSGSGSGTDFTLKISRVEAEDLGVYFCSQNTLVPWTFGGGTKLEIK
ELISA signal (A450): 0.1
